Measurements published in US20220041665A1, “POLYNUCLEOTIDE AND USES THEREOF” (Helsingin yliopisto, priority 2019, published 2022).

What was measured:
Type in all cases: cell-based, human
seipin-mEGFP = experiment: FACS screen of auxin perceptive proteins and degrons (mean GFP intensity) in A431 cell pools
Description: To search for an improved AID system to solve the issue, a pipeline was first established in human A431 cells to screen AID components (FIG. 2A). Various auxin perceptive proteins and degrons were selected for screening. Several TIR1 and AFB2 proteins from different plant species were tested, as well as degrons derived from AtIAA17 (SEQ ID NO: 3), these including amino acid (aa.) 65-132 (miniAID), aa. 62-109, aa. 71-114. All these degrons were included in the screen. […] These high affinity fragments were tested, assuming higher affinity might translate into more efficient inducible degradation. Degrons with KR dipeptide deletions were tested to see if they would have an effect on enhancing IAA binding affinity, IAA-inducible depletion or as part of a nuclear localization signal. PB1 domain of the AUX/IAA proteins has not been implicated in auxin-inducible degradation, so several other degrons with PB1 domain sequences homologous to miniAID were also tested.
A431 cell pools were generated to stably express different combinations of auxin perceptive protein and degron-fused seipin. Cells were cotransfected with a mixture of three vectors composed of pSH-EFIRES-P expressing an auxin perceptive protein, pSH-EFIRES-B expressing a degron-fused seipin, and pCas9-sgAAVS1 at ratio 3:3:4. Transfected cells were passaged 4-6 h after transfection at 1:5 into 6-well plates. On the next day, cells were selected with 1 μg/ml puromycin (Sigma, P8833) for 2 days, and with 5 μg/ml blasticidin (Gibco, A1113904) for 2 days, then with both antibiotics for at least 6 days before using for FACS analysis.
(§1) For FACS analysis, cells were seeded at 1:5 (for A431) or 1:3 (for A549) into 6-well plate in medium without selection on day 0. On day 1, medium was changed to 2 ml fresh medium without (for 0 h and 1 h IAA samples) or with (for 16 h IAA samples) 0.5 mM IAA. On day 2, the 1 h samples were supplemented with 0.5 ml medium containing 2.5 mM IAA (final 0.5 mM) and incubated for 1 h at 37° C. After treatment, cells were detached with 0.5 ml trypsin at 37° C. for 5-8 min (A549) or 8-12 min (A431), put on ice, and transferred to 1.5 ml Eppendorf tubes containing 0.5 ml serum-free CO2 independent medium (Gibco). The cell suspensions were centrifuged at 4° C., resuspended in 0.3 ml ice-cold serum-free FluoroBrite DMEM (Gibco) and stored on ice prior to FACS analysis. FACS analysis was performed on a BD Influx cell sorter (BD Biosciences-US) with 100 μm nozzle at 4-8° C. using BD FACS Sortware. Cells were gated with SSC, FSC and trigger pulse width for singlets and 100 000 cells were analyzed for each sample. GFP was excited with 488 nm laser and detected with 530/40 detector; mCherry was excited with 561 nm lasers and detected with 615/20 detector. Data was analyzed with BD FACS Sortware. Background subtracted mean fluorescence intensity was used for analysis.

[1] = tested on: endogenous target proteins tagged with miniIAA7-mEGFP; experiment: FACS of mean GFP intensity in cells with endogenously miniIAA7-mEGFP-tagged targets and auxin perceptive proteins
Description: as §1
Dynein heavy chain (DHC1) and epidermal growth factor receptor (EGFR) were chosen as the first targets. DHC1 is an essential protein that could not be rapidly depleted by using the OsTIR1-miniAID system in a previous study (Natsume et al., 2016, Cell Rep. 15, 210-218). EGFR is a transmembrane receptor with a canonical function in EGF uptake that can be acutely assessed after protein depletion. Endogenous target loci were tagged homozygously in human cells with miniIAA7-mEGFP through Cas9-mediated homology-directed repair (FIG. 3A). DHC1 was tagged homozygously but it was only possible to tag EGFR heterozygously in A431 cells, likely due to its high copy numbers in this cell type (data not shown). […]
Then the overall performance of the AtAFB2-miniIAA7 system in depleting different endogenous proteins was evaluated. […]

[2] = tested on: A549 cells with tagged EGFR; experiment: EGF uptake in A549 cells with tagged EGFR; details: EGFR-OsTIR1 cells
Description: A549 cells were seeded at 0.4×10^5 cells per 4-well for 3 days. Medium was changed to fresh medium with or without 0.5 mM IAA for 1 h. Cells were washed twice with ice-cold serum free medium with 1% BSA and 0.2 ml of 2 μg/ml Alexa Fluor™ 647 EGF complex (ThermoFisher, E35351) in serum free medium with 1% BSA was added. Cells were further incubated at 37° C. for 20 min before harvesting with trypsin. Samples were kept on ice before FACS analysis. Alexa Fluor™ 647 was excited with 640 nm laser and detected with 720/40 detector, analysing 20 000 cells per sample. Negative control samples were cells incubated in medium without EGF complex. Background subtracted mean fluorescence intensity was used for analysis.

B1: miniIAA7: degron composed of AtIAA7 (SEQ ID NO: 1) amino acids 37-104 (protein, listed as Arabidopsis thaliana)
chain: GFSETVDLMLNLQSNKEGSVDLKNVSAVPKEKTTLKDPSKPPAKAQVVGWPPVRNYRKNMMTQQKTSS
reduction of GFP at 1 h IAA (seipin-mEGFP; AtAFB2 expressing cells, 1 h IAA): best reduction of GFP | efficiency of protein reduction compared to miniAID (seipin-mEGFP; in combination with AtAFB2, 1 h IAA): over 3 fold

B2: OsTIR1: TIR1 derived from Oryza sativa, auxin perceptive protein (protein)
chain: MTYFPEEVVEHIFSFLPAQRDRNTVSLVCKVWYEIERLSRRGVFVGNCYAVRAGRVAARFPNVRALTVKGKPHFADFNLVPPDWGGYAGPWIEAAARGCHGLEELRMKRMVVSDESLELLARSFPRFRALVLISCEGFSTDGLAAVASHCKLLRELDLQENEVEDRGPRWLSCFPDSCTSLVSLNFACIKGEVNAGSLERLVSRSPNLRSLRLNRSVSVDTLAKILLRTPNLEDLGTGNLTDDFQTESYFKLTSALEKCKMLRSLSGFWDASPVCLSFIYPLCAQLTGLNLSYAPTLDASDLTKMISRCVKLQRLWVLDCISDKGLQVVASSCKDLQELRVFPSDFYVAGYSAVTEEGLVAVSLGCPKLNSLLYFCHQMTNAALVTVAKNCPNFTRFRLCILEPGKPDVVTSQPLDEGFGAIVRECKGLQRLSISGLLTDKVFMYIGKYAKQLEMLSIAFAGDSDKGMMHVMNGCKNLRKLEIRDSPFGDAALLGNFARYETMRSLWMSSCNVTLKGCQVLASKMPMLNVEVINERDGSNEMEENHGDLPKVEKLYVYRTTAGARDDAPNFVKIL
basal depletion at 0 h IAA ([1]; EGFR-OsTIR1 cells (A549), 0 h IAA): severe basal depletion | IAA-independent reduction of EGF uptake [2]: severe IAA-independent reduction

B3: AtAFB2: Arabidopsis thaliana AFB2, auxin perceptive F-box protein (SEQ ID NO: 96) (protein, listed as Arabidopsis thaliana)
chain: MNYFPDEVIEHVFDFVTSHKDRNAISLVCKSWYKIERYSRQKVFIGNCYAINPERLLRRFPCLKSLTLKGKPHFADFNLVPHEWGGFVLPWIEALARSRVGLEELRLKRMVVTDESLELLSRSFVNFKSLVLVSCEGFTTDGLASIAANCRHLRDLDLQENEIDDHRGQWLSCFPDTCTTLVTLNFACLEGETNLVALERLVARSPNLKSLKLNRAVPLDALARLMACAPQIVDLGVGSYENDPDSESYLKLMAVIKKCTSLRSLSGFLEAAPHCLSAFHPICHNLTSLNLSYAAEIHGSHLIKLIQHCKKLQRLWILDSIGDKGLEVVASTCKELQELRVFPSDLLGGGNTAVTEEGLVAISAGCPKLHSILYFCQQMTNAALVTVAKNCPNFIRFRLCILEPNKPDHVTSQPLDEGFGAIVKACKSLRRLSLSGLLTDQVFLYIGMYANQLEMLSIAFAGDTDKGMLYVLNGCKKMKKLEIRDSPFGDTALLADVSKYETMRSLWMSSCEVTLSGCKRLAEKAPWLNVEIINENDNNRMEENGHEGRQKVDKLYLYRTVVGTRMDAPPFVWIL
target protein level before IAA addition, compared to OsTIR1 (seipin-mEGFP; miniAID as degron, 0 h IAA): over 5 fold | basal depletion (seipin-mEGFP; miniAID as degron, 0 h IAA, compared to OsTIR1): minimal basal depletion | auxin-inducible depletion at 1 h IAA (seipin-mEGFP; miniAID as degron, 1 h IAA (0.5 mM)): inefficient | auxin-inducible depletion at 16 h IAA, compared to OsTIR1 (seipin-mEGFP; miniAID as degron, 16 h IAA (0.5 mM)): similar | auxin-inducible depletion at 1 h IAA and at longer times ([1]; DHC1 (A431) and EGFR (A549) tagged with miniIAA7-mEGFP): efficient auxin-inducible depletion | basal degradation at 0 h IAA ([1]; DHC1 (A431) and EGFR (A549) tagged with miniIAA7-mEGFP, 0 h IAA): minimal basal degradation
